Laboratory results: patent US20260132197A1

Tests used:
[1] = target: human CD47 on cells (SHP-77 tumor cells, human red blood cells, CCRF-CEM cells, human CD47 CHO-K1 stable cell line) (human) (UniProt Q08722); assay: flow cytometry on human RBCs
[2] = target: cynomolgus CD47 on CHO-K1 stable cell line (cynomolgus); assay: flow cytometry on cynomolgus CD47 CHO-K1 cells; plateau not reached, not accurate
[3] = target: human CD47 on cells (SHP-77 tumor cells, human red blood cells, CCRF-CEM cells, human CD47 CHO-K1 stable cell line) (human) (UniProt Q08722); assay: cell-based or functional assay
[4] = target: human CD47 on cells (SHP-77 tumor cells, human red blood cells, CCRF-CEM cells, human CD47 CHO-K1 stable cell line) (human) (UniProt Q08722); assay: flow cytometry on SHP-77 cells
[5] = target: human CD47 on cells (SHP-77 tumor cells, human red blood cells, CCRF-CEM cells, human CD47 CHO-K1 stable cell line) (human) (UniProt Q08722); assay: flow cytometry on human CD47 CHO-K1 cells; plateau not reached, not accurate

Q: Which results are given for TTI-622 fusion protein (Fc fusion)?
A: EC50 [1]: 9.7 nM; Fitted maximal MFI [1]: 644 MFI; EC50 [2]: 9.3 nM; CCRF-CEM phagocytosis EC50 [3]: 0.4 nM; CCRF-CEM phagocytosis, Phagocytosis (%) [3]: 36.6%; EC50 [4]: 4.9 nM; Fitted maximal MFI [4]: 10500 MFI; EC50 [5]: 10.4 nM
